Results taken from patent publication US20170112904A1.

What was measured:
Experiment in all cases: cell-based or functional assay
[1] = target: T1, human glucose-dependent insulinotropic polypeptide receptor (human) (UniProt P48546)
T1 sequence (looked up): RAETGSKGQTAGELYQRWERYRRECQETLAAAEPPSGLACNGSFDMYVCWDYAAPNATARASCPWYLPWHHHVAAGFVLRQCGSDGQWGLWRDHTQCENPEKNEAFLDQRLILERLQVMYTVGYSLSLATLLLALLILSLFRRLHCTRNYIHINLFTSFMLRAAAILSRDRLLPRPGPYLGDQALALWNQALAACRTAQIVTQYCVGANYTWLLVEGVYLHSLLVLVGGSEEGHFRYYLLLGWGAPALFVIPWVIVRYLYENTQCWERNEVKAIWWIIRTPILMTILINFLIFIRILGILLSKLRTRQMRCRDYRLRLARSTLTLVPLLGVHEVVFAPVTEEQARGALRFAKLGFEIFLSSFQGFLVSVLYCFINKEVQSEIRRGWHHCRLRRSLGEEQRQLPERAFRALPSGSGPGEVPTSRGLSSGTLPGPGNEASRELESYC

[2] = target: recombinant human glucagon receptor (human) (UniProt P47871)
[3] = target: human Glucagon-Like Peptide-1 receptor (human) (UniProt P43220)
human Glucagon-Like Peptide-1 receptor (human), sequence (P43220 24-463): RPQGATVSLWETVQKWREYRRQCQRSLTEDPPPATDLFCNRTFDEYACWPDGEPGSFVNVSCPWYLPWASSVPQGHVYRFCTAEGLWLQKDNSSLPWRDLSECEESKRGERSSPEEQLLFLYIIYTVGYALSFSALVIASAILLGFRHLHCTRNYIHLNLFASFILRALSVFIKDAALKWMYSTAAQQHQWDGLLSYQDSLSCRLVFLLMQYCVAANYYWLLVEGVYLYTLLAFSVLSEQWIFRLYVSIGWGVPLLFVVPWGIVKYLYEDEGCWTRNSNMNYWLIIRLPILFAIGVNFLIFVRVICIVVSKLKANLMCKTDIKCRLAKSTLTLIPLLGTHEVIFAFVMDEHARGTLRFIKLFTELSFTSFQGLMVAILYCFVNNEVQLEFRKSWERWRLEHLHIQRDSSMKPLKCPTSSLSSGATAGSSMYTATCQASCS

recombinant human glucagon receptor (human), sequence (P47871 26-477): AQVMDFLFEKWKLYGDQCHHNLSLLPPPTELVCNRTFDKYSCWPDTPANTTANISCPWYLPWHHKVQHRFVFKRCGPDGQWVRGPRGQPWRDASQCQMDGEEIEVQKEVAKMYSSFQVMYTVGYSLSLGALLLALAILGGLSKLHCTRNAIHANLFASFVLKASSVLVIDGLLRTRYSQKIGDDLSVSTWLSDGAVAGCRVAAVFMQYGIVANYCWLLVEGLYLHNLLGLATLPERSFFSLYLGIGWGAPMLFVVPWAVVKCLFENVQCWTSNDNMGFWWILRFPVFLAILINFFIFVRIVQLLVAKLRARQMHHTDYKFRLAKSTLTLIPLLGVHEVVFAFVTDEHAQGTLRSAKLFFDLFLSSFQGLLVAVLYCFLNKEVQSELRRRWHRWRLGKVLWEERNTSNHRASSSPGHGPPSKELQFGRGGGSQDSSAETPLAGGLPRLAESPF
dulaglutide (Fc fusion), sequence (chain): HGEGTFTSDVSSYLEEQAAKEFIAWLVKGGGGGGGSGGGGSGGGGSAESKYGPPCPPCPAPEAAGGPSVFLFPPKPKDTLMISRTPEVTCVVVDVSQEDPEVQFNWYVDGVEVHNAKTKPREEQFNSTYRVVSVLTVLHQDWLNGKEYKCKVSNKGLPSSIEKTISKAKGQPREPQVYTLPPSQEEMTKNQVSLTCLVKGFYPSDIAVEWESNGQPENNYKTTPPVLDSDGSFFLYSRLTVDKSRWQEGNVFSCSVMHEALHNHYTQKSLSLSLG

EC50, GIP Receptor Assay; sample C6.5-4 C.-4 wk [1]: > 0.1 µM | EC50, GIP Receptor Assay; sample C6.5-40 C.-4 wk [1]: > 0.1 µM | EC50, GIP Receptor Assay; sample C6.5MT-4 C.-4 wk [1]: > 0.1 µM | EC50, GIP Receptor Assay; sample C6.5MT-40 C.-4 wk [1]: > 0.1 µM | EC50, Gcg Receptor Assay; sample C6.5-4 C.-4 wk [2]: 0.0519 µM | EC50, Gcg Receptor Assay; sample C6.5-40 C.-4 wk [2]: > 0.1 µM | EC50, Gcg Receptor Assay; sample C6.5MT-4 C.-4 wk [2]: 0.054 µM | EC50, Gcg Receptor Assay; sample C6.5MT-40 C.-4 wk [2]: > 0.1 µM | EC50, GLP-1 Receptor Assay; sample C6.5-4 C.-4 wk [3]: 0.00037 µM | EC50, GLP-1 Receptor Assay; sample C6.5-40 C.-4 wk [3]: 0.00031 µM | EC50, GLP-1 Receptor Assay; sample C6.5MT-4 C.-4 wk [3]: 0.0004 µM | EC50, GLP-1 Receptor Assay; sample C6.5MT-40 C.-4 wk [3]: 0.00029 µM
Substance: dulaglutide (Fc fusion)
